Ends that are not written are not given here.
T1: recombinant human αB-crystallin (human, UniProt P02511 1-175)
T1 construct: human αB-crystallin, cDNA cloned into pET-23d(+); tryptic peptides 1-11 and 164-175 were observed; No tag is named and purification was by SEC and ion exchange, so it is probably untagged; source: E. coli BL21(DE3) pLysS, purified (size exclusion chromatography, then ion-exchange chromatography)
T1 sequence (looked up): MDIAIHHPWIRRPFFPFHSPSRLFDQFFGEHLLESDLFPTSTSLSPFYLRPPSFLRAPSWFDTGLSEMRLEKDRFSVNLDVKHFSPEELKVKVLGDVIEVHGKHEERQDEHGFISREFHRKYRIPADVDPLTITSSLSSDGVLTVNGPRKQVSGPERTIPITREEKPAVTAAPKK


Legend:
[1] = target: T1, recombinant human αB-crystallin
[2] = target: T1, recombinant human αB-crystallin; assay: cross-linking; sulfo-SBED label transfer: 0.25 mg derivatized peptide with 0.25 mg αB-crystallin at 37 °C for 2 h; unbound peptide removed on a 10,000 Da cut-off filter; photolysis at 365 nm for 15 min on ice; biotin on αB-crystallin detected by SDS-PAGE and avidin-HRP blot; settings: both partners purified

Row | Binder | light scattering at 60 min of βL-crystallin (100 μg) denatured at 55 °C with 5 μg αB-crystallin and 60 μg substituted peptide (αB-crystallin alone: decreased by 41%); no anti-chaperone effect [1] | binding result [2]
1 | SDADHGERLMSFRPIC [substituted peptide] | 53% | –
2 | SDAYHIERLMSFRPIC (also: sulfo-SBED cross-linker attached, site not given here, The peptide has no lysine, so the amine-specific reagent probably sits on the N-terminal amine; also called biotin-derivatized peptide; source: synthetic peptide, purified by HPLC, derivatized with sulfo-SBED and dialyzed) [sulfo-SBED-derivatized βA3/A1_(102–117) peptide] | – | binds

— article PMC2291074 (Molecular Vision, 2008)
